Measured values: article PMC4159615 (Developmental cell, 2014)

Legend:
Experiment in all cases: co-sedimentation
[1] = target: T1, Chs5(1-299)/Bch1-N692I exomer complex (S. cerevisiae (yeast), UniProt Q12114 1-299; Q05029 1-724, N692I)
T1 sequence 1: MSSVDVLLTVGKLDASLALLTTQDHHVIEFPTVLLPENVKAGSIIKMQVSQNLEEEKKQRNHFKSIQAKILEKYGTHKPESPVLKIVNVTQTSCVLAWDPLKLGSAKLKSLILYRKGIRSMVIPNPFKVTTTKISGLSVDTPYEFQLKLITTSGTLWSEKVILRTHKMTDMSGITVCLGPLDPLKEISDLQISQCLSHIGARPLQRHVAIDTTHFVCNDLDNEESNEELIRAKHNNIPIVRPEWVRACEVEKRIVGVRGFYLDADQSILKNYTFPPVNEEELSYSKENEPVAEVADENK
T1 sequence 2: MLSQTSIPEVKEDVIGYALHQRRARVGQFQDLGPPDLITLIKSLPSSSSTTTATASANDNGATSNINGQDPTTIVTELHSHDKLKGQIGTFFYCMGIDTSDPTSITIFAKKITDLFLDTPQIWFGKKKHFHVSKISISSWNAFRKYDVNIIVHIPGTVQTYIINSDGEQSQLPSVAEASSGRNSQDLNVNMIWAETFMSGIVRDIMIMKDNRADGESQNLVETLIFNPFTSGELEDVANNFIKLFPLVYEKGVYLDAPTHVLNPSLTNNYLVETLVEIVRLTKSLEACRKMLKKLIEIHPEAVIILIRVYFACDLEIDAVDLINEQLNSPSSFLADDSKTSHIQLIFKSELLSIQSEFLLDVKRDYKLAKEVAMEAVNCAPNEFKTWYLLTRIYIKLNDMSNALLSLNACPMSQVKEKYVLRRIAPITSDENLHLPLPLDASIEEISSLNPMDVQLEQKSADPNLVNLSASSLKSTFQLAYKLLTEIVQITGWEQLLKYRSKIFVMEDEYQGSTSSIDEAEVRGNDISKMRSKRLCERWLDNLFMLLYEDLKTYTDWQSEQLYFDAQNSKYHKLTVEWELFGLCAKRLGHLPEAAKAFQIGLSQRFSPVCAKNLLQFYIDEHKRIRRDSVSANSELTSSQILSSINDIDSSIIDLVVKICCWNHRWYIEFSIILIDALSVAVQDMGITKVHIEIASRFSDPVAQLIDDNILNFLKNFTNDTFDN

[2] = target: T2, Chs5(1-299)-T92Y/Bch1 exomer complex (S. cerevisiae (yeast), UniProt Q12114 1-299; Q05029 1-724, T92Y)
T2 sequence 1: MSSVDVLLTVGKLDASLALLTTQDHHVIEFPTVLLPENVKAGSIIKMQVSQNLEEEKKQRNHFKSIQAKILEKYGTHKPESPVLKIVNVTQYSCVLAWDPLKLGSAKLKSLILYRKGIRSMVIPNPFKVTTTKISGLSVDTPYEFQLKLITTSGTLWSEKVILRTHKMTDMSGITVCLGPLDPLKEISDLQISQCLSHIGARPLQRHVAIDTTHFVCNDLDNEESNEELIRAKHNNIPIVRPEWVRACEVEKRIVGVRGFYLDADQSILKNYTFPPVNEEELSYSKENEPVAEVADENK
T2 sequence 2: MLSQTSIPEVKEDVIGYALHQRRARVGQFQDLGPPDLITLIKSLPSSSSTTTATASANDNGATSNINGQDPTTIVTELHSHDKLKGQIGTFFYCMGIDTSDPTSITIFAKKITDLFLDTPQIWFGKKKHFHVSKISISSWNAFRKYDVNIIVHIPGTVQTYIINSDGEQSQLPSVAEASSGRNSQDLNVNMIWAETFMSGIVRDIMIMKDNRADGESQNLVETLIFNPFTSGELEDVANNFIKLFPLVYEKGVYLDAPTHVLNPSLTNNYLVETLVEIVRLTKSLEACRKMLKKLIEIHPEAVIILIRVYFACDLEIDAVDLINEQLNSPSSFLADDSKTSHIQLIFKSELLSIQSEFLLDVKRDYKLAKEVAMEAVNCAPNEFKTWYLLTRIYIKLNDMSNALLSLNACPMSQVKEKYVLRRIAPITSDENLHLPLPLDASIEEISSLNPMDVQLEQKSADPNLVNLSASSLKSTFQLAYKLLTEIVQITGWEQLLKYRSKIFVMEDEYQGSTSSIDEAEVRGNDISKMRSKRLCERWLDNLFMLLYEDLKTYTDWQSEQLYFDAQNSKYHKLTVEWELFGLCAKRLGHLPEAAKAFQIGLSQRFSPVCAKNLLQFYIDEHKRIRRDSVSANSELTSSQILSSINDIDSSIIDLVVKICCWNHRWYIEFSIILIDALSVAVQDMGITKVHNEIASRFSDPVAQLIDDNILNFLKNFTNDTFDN

[3] = target: T3, Chs5(1-299)/Chs6 exomer complex (S. cerevisiae (yeast), UniProt Q12114 1-299; P40955 1-746)
T3 sequence (looked up) 1: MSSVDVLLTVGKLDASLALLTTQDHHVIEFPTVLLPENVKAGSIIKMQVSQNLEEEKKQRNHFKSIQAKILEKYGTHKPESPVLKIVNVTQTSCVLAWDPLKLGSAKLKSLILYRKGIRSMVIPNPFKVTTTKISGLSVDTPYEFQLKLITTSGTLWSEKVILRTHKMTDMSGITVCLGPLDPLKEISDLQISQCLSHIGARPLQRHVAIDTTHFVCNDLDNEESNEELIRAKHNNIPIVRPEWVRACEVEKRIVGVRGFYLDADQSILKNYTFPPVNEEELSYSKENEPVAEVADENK
T3 sequence (looked up) 2: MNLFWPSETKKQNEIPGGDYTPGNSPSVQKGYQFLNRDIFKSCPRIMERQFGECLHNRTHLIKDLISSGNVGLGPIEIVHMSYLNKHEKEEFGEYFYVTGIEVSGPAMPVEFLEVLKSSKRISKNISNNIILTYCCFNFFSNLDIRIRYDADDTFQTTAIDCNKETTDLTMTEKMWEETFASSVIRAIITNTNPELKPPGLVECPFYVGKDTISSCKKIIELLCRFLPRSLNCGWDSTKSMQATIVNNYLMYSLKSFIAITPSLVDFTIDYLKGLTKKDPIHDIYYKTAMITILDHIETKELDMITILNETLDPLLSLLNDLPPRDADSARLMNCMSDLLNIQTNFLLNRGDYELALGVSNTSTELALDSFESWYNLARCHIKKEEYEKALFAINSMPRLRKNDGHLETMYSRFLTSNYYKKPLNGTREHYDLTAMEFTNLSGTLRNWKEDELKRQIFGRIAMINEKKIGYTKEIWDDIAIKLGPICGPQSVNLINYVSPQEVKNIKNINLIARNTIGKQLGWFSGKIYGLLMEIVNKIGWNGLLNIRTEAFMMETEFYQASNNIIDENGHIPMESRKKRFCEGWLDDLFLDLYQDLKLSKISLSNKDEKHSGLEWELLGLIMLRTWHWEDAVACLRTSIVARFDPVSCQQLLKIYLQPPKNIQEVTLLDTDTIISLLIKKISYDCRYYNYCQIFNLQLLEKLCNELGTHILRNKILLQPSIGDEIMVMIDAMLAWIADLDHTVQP

[4] = target: T4, Chs5(1-299)/Bch1 exomer complex (S. cerevisiae (yeast), UniProt Q12114 1-299; Q05029 1-724)
T4 sequence 1: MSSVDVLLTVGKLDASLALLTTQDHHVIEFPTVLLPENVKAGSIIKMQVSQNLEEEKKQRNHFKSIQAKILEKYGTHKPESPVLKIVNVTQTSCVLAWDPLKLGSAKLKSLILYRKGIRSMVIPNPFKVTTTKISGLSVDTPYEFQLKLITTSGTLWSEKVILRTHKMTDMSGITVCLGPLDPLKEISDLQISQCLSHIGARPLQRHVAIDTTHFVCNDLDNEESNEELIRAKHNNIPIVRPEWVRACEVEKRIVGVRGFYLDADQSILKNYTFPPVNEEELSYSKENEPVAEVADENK
T4 sequence 2: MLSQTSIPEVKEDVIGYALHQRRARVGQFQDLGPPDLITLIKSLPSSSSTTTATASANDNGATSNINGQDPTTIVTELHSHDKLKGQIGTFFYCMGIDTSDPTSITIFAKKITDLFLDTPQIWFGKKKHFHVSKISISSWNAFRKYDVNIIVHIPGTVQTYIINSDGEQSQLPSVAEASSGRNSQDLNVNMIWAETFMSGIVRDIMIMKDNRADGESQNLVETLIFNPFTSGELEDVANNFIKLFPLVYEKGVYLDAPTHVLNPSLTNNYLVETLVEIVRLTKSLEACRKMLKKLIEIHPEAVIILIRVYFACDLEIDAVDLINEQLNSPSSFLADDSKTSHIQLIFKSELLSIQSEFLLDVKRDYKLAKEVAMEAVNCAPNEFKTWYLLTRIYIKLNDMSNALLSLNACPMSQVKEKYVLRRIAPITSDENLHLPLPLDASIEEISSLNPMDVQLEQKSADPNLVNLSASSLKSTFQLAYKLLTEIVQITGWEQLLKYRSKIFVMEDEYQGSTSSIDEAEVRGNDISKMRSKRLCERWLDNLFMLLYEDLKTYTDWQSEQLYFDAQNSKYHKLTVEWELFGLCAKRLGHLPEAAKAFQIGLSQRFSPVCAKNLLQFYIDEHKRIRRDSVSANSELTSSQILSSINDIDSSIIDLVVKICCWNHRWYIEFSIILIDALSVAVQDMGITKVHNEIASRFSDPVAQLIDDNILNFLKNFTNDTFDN

[5] = target: T5, Chs5(1-299)-T92Y/Bch1-N692I exomer complex (S. cerevisiae (yeast), UniProt Q12114 1-299; Q05029 1-724, T92Y | N692I)
T5 sequence 1: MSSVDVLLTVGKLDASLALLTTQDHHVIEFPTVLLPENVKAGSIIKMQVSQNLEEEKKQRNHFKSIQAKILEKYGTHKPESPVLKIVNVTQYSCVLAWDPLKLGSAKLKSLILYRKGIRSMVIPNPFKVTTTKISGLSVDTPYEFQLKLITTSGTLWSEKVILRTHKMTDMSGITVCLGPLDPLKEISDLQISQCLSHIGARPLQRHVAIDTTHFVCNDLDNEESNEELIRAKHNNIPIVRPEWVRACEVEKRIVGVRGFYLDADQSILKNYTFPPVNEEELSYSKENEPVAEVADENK
T5 sequence 2: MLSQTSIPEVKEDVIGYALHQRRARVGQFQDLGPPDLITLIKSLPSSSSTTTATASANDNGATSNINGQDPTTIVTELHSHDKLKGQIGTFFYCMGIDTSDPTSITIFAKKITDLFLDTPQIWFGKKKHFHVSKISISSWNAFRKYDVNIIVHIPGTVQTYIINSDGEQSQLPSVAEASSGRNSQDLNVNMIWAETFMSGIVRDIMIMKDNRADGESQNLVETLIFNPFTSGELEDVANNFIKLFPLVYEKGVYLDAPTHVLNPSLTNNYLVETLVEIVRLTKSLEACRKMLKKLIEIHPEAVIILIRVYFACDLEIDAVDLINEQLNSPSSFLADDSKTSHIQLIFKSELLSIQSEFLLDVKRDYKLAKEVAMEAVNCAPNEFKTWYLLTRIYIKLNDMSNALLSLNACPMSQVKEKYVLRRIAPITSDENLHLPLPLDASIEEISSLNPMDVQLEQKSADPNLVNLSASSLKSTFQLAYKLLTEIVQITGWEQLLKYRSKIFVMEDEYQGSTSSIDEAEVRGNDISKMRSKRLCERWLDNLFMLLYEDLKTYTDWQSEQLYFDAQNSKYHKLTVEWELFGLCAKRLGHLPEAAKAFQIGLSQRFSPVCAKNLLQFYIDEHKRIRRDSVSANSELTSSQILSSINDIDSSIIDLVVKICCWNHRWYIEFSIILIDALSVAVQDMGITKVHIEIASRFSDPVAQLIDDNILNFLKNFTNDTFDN

Measured: binding result

B1: myristoylated Arf1 (wild type), GTP-bound, anchored on liposomes (natural protein, yeast, UniProt P11076 1-181, looked up)
chain: MGLFASKLFSNLFGNKEMRILMVGLDGAGKTTVLYKLKLGEVITTIPTIGFNVETVQYKNISFTVWDVGGQDRIRSLWRHYYRNTEGVIFVVDSNDRSRIGEAREVMQRMLNEDELRNAAWLVFANKQDLPEAMSAAEITEKLGLHSIRNRPWFIQATCATSGEGLYEGLEWLSNSLKNST
modifications: myristoylated
binds: all assays above

B2: myristoylated Arf1-S98Y (natural protein, yeast, UniProt P11076 1-181, looked up)
chain: MGLFASKLFSNLFGNKEMRILMVGLDGAGKTTVLYKLKLGEVITTIPTIGFNVETVQYKNISFTVWDVGGQDRIRSLWRHYYRNTEGVIFVVDSNDRYRIGEAREVMQRMLNEDELRNAAWLVFANKQDLPEAMSAAEITEKLGLHSIRNRPWFIQATCATSGEGLYEGLEWLSNSLKNST
modifications: myristoylated
binds: [4]
